{
  "source": "paper PMC6359176",
  "origin": "cited, not measured here",
  "biological_target": "α-synuclein preformed fibrils (Homo sapiens) (UniProt P37840)",
  "data": [
    {"substance": "LAG3 (from UniProt Q61790)", "values": [
      {"measurement": "Kd", "result": 77, "unit": "nM"}
    ]}
  ]
}
